B1: Cell division cycle-related protein res1/sct1 (Schizosaccharomyces pombe (strain ATCC 38366 / 972)), P33520 (parent)
chain: MYNDQIHKITYSGVEVFEYTINGFPLMKRCHDNWLNATQILKIAELDKPRRTRILEKFAQKGLHEKIQGGCGKYQGTWVPSERAVELAHEYNVFDLIQPLIEYSGSAFMPMSTFTPQSNRKPTEAYRRNSPVKKSFSRPSHSLLYPYTSSNNMTSTSRMSGIHDALSLQSDFTRSPDMPSDSFTGSLHDIKASPFSSNNYAQSLLDYFLLPNTTQPPDFVYDRPSDWDVNAGIDEDGHTALHWAAAMGNLEMMHALLQAGANVVAVNYLQQTSLMRCVMFTMNYDLQTFEVVSELLQSAICMNDSFGQTVFHHIALLASSKSKMEAARYYMDILLQNLTATQSVDVAAQIINLQDDHGDTALLICARNGAKKCARLLLSFYASSSIPNNQGQYPTDFLSSKDMSFPENDDSPLNSKIEDNLIDNLKYPQSLDDHLSSKKPISYFSNKLTHQTLPNVFTQLSELSKCHEASLAEKQLTYNLAMEALEQTVRETETCQRLWNERTNNDENYLVNQREDLIHQCKKFLHTLKTARYYLETVQLHQLKKYVTYFSQIWSTDELADISETKNLVGHDTKTNRSSLSSKHEVDLFTAENEAAREKLVEQLCSLQAQRKQKINEILNLLSMGMYNTINTDQSGS
partner: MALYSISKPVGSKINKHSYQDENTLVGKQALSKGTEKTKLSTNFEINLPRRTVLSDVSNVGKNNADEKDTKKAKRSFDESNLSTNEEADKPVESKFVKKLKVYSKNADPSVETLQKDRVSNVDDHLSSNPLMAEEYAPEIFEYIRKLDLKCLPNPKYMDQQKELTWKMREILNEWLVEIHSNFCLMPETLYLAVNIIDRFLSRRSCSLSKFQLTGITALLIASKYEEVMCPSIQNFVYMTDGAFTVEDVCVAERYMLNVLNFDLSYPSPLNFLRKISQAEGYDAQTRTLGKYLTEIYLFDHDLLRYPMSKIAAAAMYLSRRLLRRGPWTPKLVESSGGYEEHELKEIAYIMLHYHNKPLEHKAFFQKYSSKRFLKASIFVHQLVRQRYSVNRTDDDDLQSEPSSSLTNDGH

Variants of: B1
Conditions: with cg22_schpo cig2, P36630

Row | effect of a mutation on the interaction | Variant
1 | increasing interaction | S130A

Variants of: B1
Conditions: with cg22_schpo cig2, P36630
Remark: another data set of the same source

Row | effect of a mutation on the interaction | Variant
2 | disrupting interaction | S130A
